Several values for one entry are separate records, joined by “and”; a condition that tells them apart may be missing. Equal entries are not always repeated.
Molecular target: AVRPM3^b2/c2 lacking the signal peptide, C-terminally FLAG- or HA-tagged (Blumeria graminis f.sp. tritici)
Assay: cross-linking

## AVRPM3^b2/c2 lacking the signal peptide, C-terminally FLAG- or HA-tagged (natural protein)
  stoichiometry N: 2 and 3
